Experiment [1] addresses HLA-A*02:01 (human). Briefly: preformed control pMHC complex for aAPC stimulation. The procedure:
(§1) 800.000 beads/200 μl were coated in 96-well plates in the presence of 4×12.5 ng different biotin-pMHC, washed and 600 ng biotin anti-CD28 were added subsequently in a volume of 200 μl. […] Half of the medium was then exchanged by fresh TCM supplemented with 80 U/ml IL-2 and incubating was continued for 4 days at 37° C. This stimulation cycle was performed for a total of three times. For the pMHC multimer readout using 8 different pMHC molecules per condition, a two-dimensional combinatorial coding approach was used as previously described (Andersen et al., 2012) with minor modifications encompassing coupling to 5 different fluorochromes. Finally, multimeric analyses were performed by staining the cells with Live/dead near IR dye (Invitrogen, Karlsruhe, Germany), CD8-FITC antibody clone SK1 (BD, Heidelberg, Germany) and fluorescent pMHC multimers. For analysis, a BD LSRII SORP cytometer equipped with appropriate lasers and filters was used. Peptide specific cells were calculated as percentage of total CD8+ cells. Evaluation of multimeric analysis was done using the FlowJo software (Tree Star, Oregon, USA). In vitro priming of specific multimer+CD8+ lymphocytes was detected by comparing to negative control stimulations.

Experiment [2] concerns the target HLA-A*02:01 (human). Briefly: preformed pMHC complex on aAPC beads and as fluorescent multimer, in vitro CD8+ T cell priming. The procedure: (§2) Viable singlet cells were gated for CD8+ lymphocytes. Boolean gates helped excluding false-positive events detected with multimers specific for different peptides.
as §1

Another experiment deals with HLA-A*24:02 (human). The experiment is described as above. The procedure:
as §2, §1

B1: DDX5-001 (YLLPAIVHI from DDX5) (peptide)
peptide: YLLPAIVHI
notes: Negative control peptide for T cell stimulations (still a pMHC complex with A*02:01); also called 533
Consider B1, for which, in the experiment with HLA-A*02:01 [1], the binding result is on record as “binds”.

B2: SeqID No 520 peptide (KIQEMQHFL) (peptide)
peptide: KIQEMQHFL
notes: Synthetic peptide
Regarding B2, the binding result with HLA-A*02:01 [2] is on record as “binds”.

B3: SeqID No 504 peptide (VYEKNGYIYF) (peptide)
peptide: VYEKNGYIYF
notes: Synthetic peptide
For the molecule B3, the binding result with HLA-A*24:02 is “binds”.
